{"source": "patent US20200397917", "about": "“ENGINEERED DNA BINDING PROTEINS” (Encoded Therapeutics, Inc., published 2020)", "key": {"ZF DBD-CITED2": {"molecular_target": "ZF DBD-CITED2 (synthetic)", "sequence (chain, as listed by the source)": "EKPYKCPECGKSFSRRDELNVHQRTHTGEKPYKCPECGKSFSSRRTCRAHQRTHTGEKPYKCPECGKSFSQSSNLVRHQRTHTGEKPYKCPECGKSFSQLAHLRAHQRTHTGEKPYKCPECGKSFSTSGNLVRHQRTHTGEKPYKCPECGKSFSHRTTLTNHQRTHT", "assay": "cell_activity; versus reporter alone", "conditions": "tags: NLS; CITED2", "method": "(§1) HEK293 cells were cultured per standard methods, and co-transfected (FuGene HD, Promega) with 1.5 ug of a reporter plasmid consisting of EGFP under the control of a tetracycline-responsive element (TRE) tight promoter, and 1.5 ug of each tested activator, or empty vector control (pUC57). 48h following transfection, cells were imaged using an epifluorescent microscope for GFP expression. The cells were collected and RNA was isolated (Qiagen RNeasy Mini kit), and DNase treated. RNA (3 ug) was reverse transcribed using OligoDT primers (Superscript IV, Invitrogen). cDNA samples were analyzed by qPCR using Phusion Polymerase (New England Biolabs) and SYBR Green I: (30s at 98° C., 40×[10 sec at 98° C., 15 sec at 65° C., 15 sec at 72° C.]). Primers against EGFP (5′-[…]-3′ (SEQ ID NO: 369); 5′-[…]-3′ (SEQ ID NO: 370)) were used to quantify levels of reporter-driven EGFP transcript, and relative levels of EGFP expression were determined by the delta-delta Ct method with GAPDH as a reference gene (5′-[…]-3′ (SEQ ID NO: 192); 5′-[…]-3′ (SEQ ID NO: 193)).\n(§2) Data are presented as fold changes relative to the control condition."}, "ZF DBD-CITED4": {"molecular_target": "ZF DBD-CITED4 (synthetic)", "assay": "cell_activity; versus reporter alone", "conditions": "tags: NLS; CITED4", "method": "as §1, §2"}, "ZF DBD-VP64": {"molecular_target": "ZF DBD-VP64 (synthetic)", "assay": "cell_activity; EGFP reporter; about 40-fold in FIG. 33B", "conditions": "tags: NLS", "method": "as §1, §2"}, "[1]": {"molecular_target": "EGR1-based eTF, synthetic 6-ZF DBD (synthetic)", "sequence (chain, as listed by the source)": "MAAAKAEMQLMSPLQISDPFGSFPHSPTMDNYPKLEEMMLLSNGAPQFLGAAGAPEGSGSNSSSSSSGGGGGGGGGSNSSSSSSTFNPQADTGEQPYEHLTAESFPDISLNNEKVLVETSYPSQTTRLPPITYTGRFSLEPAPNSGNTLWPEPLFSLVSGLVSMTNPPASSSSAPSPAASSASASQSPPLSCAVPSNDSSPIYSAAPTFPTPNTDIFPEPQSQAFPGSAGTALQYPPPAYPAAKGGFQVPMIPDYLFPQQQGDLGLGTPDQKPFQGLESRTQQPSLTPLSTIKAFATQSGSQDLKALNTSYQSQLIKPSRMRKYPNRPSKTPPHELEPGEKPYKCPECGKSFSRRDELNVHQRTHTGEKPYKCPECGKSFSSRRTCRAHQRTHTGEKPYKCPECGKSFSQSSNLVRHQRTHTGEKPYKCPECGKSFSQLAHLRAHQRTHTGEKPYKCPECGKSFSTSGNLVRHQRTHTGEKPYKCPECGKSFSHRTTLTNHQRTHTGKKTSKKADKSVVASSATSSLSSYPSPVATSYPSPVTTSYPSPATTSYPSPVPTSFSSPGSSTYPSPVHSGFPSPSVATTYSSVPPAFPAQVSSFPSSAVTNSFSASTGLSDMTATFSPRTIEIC", "assay": "cell_activity; EGFP reporter", "method": "as §1, §2"}, "[2]": {"molecular_target": "EGR1-based eTF, duplicated 6 ZF (TRE) (synthetic)", "sequence (chain, as listed by the source)": "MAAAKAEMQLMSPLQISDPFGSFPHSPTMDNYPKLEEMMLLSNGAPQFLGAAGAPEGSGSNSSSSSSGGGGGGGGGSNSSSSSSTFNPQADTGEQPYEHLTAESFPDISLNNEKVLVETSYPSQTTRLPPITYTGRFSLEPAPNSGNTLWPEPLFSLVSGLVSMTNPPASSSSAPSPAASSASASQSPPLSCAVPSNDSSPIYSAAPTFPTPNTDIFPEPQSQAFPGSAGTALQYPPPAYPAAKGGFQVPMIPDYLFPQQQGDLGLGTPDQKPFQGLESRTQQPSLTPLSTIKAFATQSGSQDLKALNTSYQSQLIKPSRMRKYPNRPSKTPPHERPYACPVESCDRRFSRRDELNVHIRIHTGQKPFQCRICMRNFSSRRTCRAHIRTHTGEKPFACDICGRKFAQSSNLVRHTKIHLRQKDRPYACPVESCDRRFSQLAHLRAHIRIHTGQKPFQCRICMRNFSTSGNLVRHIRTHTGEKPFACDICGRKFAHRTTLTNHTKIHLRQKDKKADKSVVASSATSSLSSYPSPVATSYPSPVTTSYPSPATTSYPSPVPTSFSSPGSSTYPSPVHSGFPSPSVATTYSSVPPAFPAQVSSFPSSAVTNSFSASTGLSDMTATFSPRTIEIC", "assay": "cell_activity; EGFP reporter", "method": "as §1, §2"}, "[3]": {"molecular_target": "EGR3-based eTF, 6 ZF (TRE) (synthetic)", "sequence (chain, as listed by the source)": "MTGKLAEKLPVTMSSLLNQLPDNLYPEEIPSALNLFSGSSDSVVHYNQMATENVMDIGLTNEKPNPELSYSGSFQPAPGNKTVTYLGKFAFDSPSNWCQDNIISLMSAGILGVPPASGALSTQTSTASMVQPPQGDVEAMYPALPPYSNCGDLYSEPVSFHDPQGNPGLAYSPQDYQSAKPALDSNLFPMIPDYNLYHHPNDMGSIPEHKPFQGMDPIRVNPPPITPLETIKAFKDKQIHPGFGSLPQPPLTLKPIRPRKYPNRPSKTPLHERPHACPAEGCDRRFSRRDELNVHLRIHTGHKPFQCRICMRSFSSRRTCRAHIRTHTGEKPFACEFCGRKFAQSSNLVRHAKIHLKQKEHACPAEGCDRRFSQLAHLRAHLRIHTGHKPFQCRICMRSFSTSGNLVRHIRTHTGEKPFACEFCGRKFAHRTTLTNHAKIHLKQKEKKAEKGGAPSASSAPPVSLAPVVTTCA", "assay": "cell_activity; versus control SEQ 187", "method": "as §1, §2"}, "[4]": {"molecular_target": "EGR1-based eTF, 9 ZF (SCN1A) (synthetic)", "sequence (chain, as listed by the source)": "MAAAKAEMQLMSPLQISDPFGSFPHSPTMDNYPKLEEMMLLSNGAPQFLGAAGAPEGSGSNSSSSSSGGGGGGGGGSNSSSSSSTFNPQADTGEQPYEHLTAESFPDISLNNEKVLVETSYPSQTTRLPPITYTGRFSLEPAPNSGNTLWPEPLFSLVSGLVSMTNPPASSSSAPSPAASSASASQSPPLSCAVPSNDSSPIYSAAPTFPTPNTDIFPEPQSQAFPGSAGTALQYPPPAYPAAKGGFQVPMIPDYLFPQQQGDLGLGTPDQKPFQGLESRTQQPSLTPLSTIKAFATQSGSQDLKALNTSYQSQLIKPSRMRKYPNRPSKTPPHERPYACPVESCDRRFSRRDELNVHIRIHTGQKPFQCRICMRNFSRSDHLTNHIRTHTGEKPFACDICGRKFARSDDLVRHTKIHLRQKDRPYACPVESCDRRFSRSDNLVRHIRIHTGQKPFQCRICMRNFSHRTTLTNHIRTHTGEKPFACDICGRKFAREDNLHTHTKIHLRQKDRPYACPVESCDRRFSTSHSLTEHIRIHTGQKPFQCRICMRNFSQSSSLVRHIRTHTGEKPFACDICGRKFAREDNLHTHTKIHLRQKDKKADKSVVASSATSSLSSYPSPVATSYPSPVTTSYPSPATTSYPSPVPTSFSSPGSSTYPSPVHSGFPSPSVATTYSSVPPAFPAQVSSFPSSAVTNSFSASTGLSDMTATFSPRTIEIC", "assay": "cell_activity; endogenous SCN1A, HEK293", "method": "(§3) HEK293 cells were cultured per standard methods, and transfected (FuGene HD, Promega) with 3 ug of each tested activator, or an EGFP control. 48h following transfection, cells were collected and RNA was isolated (Qiagen RNeasy Mini kit), and DNase treated. RNA (3 ug) was reverse transcribed using OligoDT primers (Superscript IV, Invitrogen). cDNA samples were analyzed by qPCR using Phusion Polymerase (New England Biolabs) and SYBR Green I: (30s at 98° C., 40×[10 sec at 98° C., 15 sec at 68° C., 15 sec at 72° C.]). Primers against human SCN1A (5′-[…]-3′ (SEQ ID NO: 190); 5′-[…]-3′ (SEQ ID NO: 191)) were used to quantify levels of reporter-driven EGFP transcript, and relative levels of EGFP expression were determined by the delta-delta Ct method with GAPDH as a reference gene (5′-[…]-3′ (SEQ ID NO: 192); 5′-[…]-3′ (SEQ ID NO: 193)). Data are presented as fold changes relative to the control condition. SEQ ID NOs: 6, 7, and 9 are eTFs derived from human EGR1 protein and are engineered to bind to a target site near or at endogenous SCN1A gene, wherein the target site is SEQ ID NOs: 35-37."}, "[5]": {"molecular_target": "EGR1-based eTF, 6 ZF (SCN1A) (synthetic)", "sequence (chain, as listed by the source)": "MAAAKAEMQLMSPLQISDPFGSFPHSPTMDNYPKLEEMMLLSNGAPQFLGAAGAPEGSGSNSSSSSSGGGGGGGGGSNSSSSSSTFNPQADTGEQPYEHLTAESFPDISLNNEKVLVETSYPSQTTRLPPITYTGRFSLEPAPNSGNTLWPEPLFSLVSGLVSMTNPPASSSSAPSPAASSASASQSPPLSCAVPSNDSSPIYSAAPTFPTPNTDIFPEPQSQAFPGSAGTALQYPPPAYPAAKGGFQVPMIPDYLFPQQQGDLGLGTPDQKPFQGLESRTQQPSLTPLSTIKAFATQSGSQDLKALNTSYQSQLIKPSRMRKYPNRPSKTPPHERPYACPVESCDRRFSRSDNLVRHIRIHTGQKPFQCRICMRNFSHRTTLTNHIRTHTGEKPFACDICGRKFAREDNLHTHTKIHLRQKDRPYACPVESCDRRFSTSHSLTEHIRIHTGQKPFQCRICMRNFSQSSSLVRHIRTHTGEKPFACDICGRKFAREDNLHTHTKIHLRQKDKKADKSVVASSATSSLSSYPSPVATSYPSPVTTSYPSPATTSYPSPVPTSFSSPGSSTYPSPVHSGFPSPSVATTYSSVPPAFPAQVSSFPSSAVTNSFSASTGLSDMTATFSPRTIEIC", "assay": "cell_activity; endogenous SCN1A, HEK293", "method": "as §3"}, "EGR1-based eTF, 3 ZF": {"molecular_target": "EGR1-based eTF, 3 ZF (synthetic, UniProt P18146 SEQ:1-543)", "sequence (P18146 other isoform, or with tags, fused parts or gaps)": "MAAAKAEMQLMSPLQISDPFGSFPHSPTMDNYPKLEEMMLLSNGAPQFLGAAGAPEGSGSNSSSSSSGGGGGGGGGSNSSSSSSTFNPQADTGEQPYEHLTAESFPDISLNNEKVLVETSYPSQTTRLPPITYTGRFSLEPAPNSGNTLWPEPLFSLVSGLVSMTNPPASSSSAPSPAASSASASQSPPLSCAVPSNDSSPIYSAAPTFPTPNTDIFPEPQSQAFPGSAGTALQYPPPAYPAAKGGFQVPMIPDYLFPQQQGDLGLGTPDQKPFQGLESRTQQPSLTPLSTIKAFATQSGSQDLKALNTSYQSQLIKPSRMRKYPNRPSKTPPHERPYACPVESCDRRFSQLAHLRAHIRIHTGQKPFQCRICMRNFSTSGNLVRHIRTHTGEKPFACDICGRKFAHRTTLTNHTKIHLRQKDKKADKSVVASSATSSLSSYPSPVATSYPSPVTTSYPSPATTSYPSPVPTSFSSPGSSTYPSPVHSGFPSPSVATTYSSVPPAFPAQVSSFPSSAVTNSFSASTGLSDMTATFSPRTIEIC", "assay": "cell_activity; EGFP reporter", "method": "as §1, §2"}}, "data": [{"binder": "TRE reporter site (dsDNA) DNA 1: AGTGATAGAGAACGTATG DNA 2: CATACGTTCTCTATCACT", "values": [{"measurement": "activity", "setting": "ZF DBD-CITED2", "value": "~15", "unit": "fold EGFP"}, {"measurement": "activity", "setting": "ZF DBD-CITED4", "value": "~10", "unit": "fold EGFP"}, {"measurement": "activity", "setting": "ZF DBD-VP64", "value": 70, "unit": "fold EGFP"}, {"measurement": "activity", "setting": "[1]", "value": 10, "unit": "fold EGFP"}, {"measurement": "activity", "setting": "[2]", "value": 15, "unit": "fold EGFP"}, {"measurement": "activity", "setting": "[3]", "value": "≥ 5", "unit": "fold EGFP"}]}, {"binder": "SCN1A site 37 (dsDNA) DNA 1: TAGGTACCATAGAGTGAGGCGAGGATG DNA 2: CATCCTCGCCTCACTCTATGGTACCTA", "values": [{"measurement": "activity", "setting": "[4]", "value": "~20", "unit": "fold SCN1A"}]}, {"binder": "SCN1A site 36 (dsDNA) DNA 1: TAGGTACCATAGAGTGAG DNA 2: CTCACTCTATGGTACCTA", "values": [{"measurement": "activity", "setting": "[5]", "value": "~7", "unit": "fold SCN1A"}]}, {"binder": "TRE reporter 9-nt site (dsDNA) DNA 1: AGTGATAGA DNA 2: TCTATCACT", "values": [{"measurement": "activity", "setting": "EGR1-based eTF, 3 ZF", "value": 3, "unit": "fold EGFP"}]}]}
